Target: Myc-tagged full-length TCF4 (human, UniProt Q9NQB0-8 1-596)
Test: cell-based or functional assay

Chain of Myc-tagged full-length TCF4 (Q9NQB0 other isoform, or with tags, fused parts or gaps): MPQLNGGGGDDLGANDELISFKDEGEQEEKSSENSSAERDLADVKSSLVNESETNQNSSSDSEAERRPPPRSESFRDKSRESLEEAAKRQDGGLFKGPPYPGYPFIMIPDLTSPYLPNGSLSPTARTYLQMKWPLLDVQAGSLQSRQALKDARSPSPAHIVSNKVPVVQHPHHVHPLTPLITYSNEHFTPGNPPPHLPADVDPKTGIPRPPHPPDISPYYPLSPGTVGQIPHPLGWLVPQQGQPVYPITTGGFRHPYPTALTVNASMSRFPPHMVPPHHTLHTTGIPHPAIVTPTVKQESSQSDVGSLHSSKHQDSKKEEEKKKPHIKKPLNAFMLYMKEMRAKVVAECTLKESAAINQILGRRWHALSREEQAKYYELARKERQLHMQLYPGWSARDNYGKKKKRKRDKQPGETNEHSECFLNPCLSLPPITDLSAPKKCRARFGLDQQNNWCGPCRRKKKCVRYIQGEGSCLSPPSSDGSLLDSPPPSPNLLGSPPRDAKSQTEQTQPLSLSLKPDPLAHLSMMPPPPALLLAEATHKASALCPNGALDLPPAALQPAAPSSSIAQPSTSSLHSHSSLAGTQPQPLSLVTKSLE

B1: HA-epitope-tagged GRG5/AES (natural protein, human, UniProt Q08117 1-197, looked up)
chain: MMFPQSRHSGSSHLPQQLKFTTSDSCDRIKDEFQLLQAQYHSLKLECDKLASEKSEMQRHYVMYYEMSYGLNIEMHKQAEIVKRLNGICAQVLPYLSQEHQQQVLGAIERAKQVTAPELNSIIRQQLQAHQLSQLQALALPLTPLPVGLQPPSLPAVSAGTGLLSLSALGSQAHLSKEDKNGHDGDTHQEDDGEKSD
B1 was tested, and the “TCF-Luc luciferase reporter in HEK293 cells with transfected β-catenin: repression on co-transfection of GRG5/AES and dnTCF4 plasmids (0.4 µg each), against a 6.3-fold additive effect of each alone” value was 22.5 fold.

— PMC3698143, “GRG5/AES Interacts with T-Cell Factor 4 (TCF4) and Downregulates Wnt Signaling in Human Cells and Zebrafish Embryos” (PLoS ONE, 2013)
